From patent US20120207721A1 (AARHUS UNIVERSITET, published 2012)

Molecular target: T1, soluble insulin receptor (IR) (R&D systems, 28-956) (UniProt P06213 28-956)
T1 construct: extracellular domain; Bought protein, coupled to a CM5 chip by NHS/EDC; It may be the same product as m8; also called soluble IR; immobilized soluble insulin receptor
Assay: SPR (Biacore), soluble IR coupled to CM5 chip, soluble SorCS1 as analyte

B1: soluble full-length extracellular part of SorCS1 (receptor)
chain: SGADQEKAERGEGASRSPRGVLRDGGQQEPGTRERDPDKATRFRMEELRLTSTTFALTGDSAHNQAMVHWSGHNSSVILILTKLYDYNLGSITESSLWRSTDYGTTYEKLNDKVGLKTILSYLYVCPTNKRKIMLLTDPEIESSLLISSDEGATYQKYRLNFYIQSLLFHPKQEDWILAYSQDQKLYSSAEFGRRWQLIQEGVVPNRFYWSVMGSNKEPDLVHLEARTVDGHSHYLTCRMQNCTEANRNQPFPGYIDPDSLIVQDHYVFVQLTSGGRPHYYVSYRRNAFAQMKLPKYALPKDMHVISTDENQVFAAVQEWNQNDTYNLYISDTRGVYFTLALENVQSSRGPEGNIMIDLYEVAGIKGMFLANKKIDNQVKTFITYNKGRDWRLLQAPDTDLRGDPVHCLLPYCSLHLHLKVSENPYTSGIIASKDTAPSIIVASGNIGSELSDTDISMFVSSDAGNTWRQIFEEEHSVLYLDQGGVLVAMKHTSLPIRHLWLSFDEGRSWSKYSFTSIPLFVDGVLGEPGEETLIMTVFGHFSHRSEWQLVKVDYKSIFDRRCAEEDYRPWQLHSQGEACIMGAKRIYKKRKSERKCMQGKYAGAMESEPCVCTEADFDCDYGYERHSNGQCLPAFWFNPSSLSKDCSLGQSYLNSTGYRKVVSNNCTDGVREQYTAKPQKCPGKAPRGLRIVTADGKLTAEQGHNVTLMVQLEEGDVQRTLIQVDFGDGIAVSYVNLSSMEDGIKHVYQNVGIFRVTVQVDNSLGSDSAVLYLHVTCPLEHVHLSLPFVTTKNKEVNATAVLWPSQVGTLTYVWWYGNNTEPLITLEGSISFRFTSEGMNTITVQVSAGNAILQDTKTIAVYEEFRSLRLSFSPNLDDYNPDIPEWRRDIGRVIKKSLVEATGVPGQHILVAVLPGLPTTAELFVLPYQDPAGENKRSTDDLEQISELLIHTLNQNSVHFELKPGVRVLVHAAHLTAAPLVDLTPTHSG
  Kd: ~5 nM
